Measurements as given in patent US7629437 (University of California, dated 2009).
*: point of attachment. CH2Cl = ClC*

How the values were obtained:
Assay in all cases: cell-based or functional assay
[1] = target: tissue-type plasminogen activator (UniProt P00750 36-562, limits assumed)
Factor Xa = target: Factor Xa
Human thrombin = Human thrombin (human, UniProt P00734 328-622)
[2] = target: Recombinant human βI tryptase (human, UniProt Q15661 31-275, N-glycosylated (non-, single-, double- and hyper-glycosylation forms observed))
Human plasmin = Human plasmin (human, UniProt P00747 97-810, limits assumed)
[3] = target: urokinase plasminogen activator (UniProt P00749 21-431, limits assumed)
[4] = target: Recombinant human βII tryptase (human, singly N-glycosylated (non- and single-glycosylation forms observed))
Recombinant human βII tryptase (human, singly N-glycosylated (non- and single-glycosylation forms observed)), sequence (chain, as listed by the source): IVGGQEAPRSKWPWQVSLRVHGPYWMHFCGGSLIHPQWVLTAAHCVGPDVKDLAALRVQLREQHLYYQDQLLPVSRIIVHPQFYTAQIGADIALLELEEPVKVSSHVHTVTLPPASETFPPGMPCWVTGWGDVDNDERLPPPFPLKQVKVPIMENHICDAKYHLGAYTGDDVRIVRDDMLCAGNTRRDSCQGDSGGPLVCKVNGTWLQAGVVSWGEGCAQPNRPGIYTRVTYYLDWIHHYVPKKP

tissue-type plasminogen activator, sequence (P00750 36-562 limits assumed): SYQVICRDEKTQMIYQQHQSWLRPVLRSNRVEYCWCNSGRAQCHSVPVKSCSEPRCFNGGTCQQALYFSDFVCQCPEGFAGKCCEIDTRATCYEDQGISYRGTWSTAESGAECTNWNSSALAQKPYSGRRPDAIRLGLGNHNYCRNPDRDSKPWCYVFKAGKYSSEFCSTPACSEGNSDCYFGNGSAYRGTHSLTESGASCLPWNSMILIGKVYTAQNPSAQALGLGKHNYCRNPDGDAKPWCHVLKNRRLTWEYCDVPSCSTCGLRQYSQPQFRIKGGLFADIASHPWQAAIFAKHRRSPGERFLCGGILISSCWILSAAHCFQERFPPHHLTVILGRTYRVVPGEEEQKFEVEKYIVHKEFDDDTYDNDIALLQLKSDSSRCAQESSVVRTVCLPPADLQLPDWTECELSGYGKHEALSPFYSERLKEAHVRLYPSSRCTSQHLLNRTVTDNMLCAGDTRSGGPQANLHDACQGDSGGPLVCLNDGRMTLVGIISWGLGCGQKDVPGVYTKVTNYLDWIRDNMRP
Recombinant human βI tryptase, sequence (Q15661 31-275): as the sequence (chain, as listed by the source) above, with K102N counted along it
Human plasmin, sequence (P00747 97-810 limits assumed): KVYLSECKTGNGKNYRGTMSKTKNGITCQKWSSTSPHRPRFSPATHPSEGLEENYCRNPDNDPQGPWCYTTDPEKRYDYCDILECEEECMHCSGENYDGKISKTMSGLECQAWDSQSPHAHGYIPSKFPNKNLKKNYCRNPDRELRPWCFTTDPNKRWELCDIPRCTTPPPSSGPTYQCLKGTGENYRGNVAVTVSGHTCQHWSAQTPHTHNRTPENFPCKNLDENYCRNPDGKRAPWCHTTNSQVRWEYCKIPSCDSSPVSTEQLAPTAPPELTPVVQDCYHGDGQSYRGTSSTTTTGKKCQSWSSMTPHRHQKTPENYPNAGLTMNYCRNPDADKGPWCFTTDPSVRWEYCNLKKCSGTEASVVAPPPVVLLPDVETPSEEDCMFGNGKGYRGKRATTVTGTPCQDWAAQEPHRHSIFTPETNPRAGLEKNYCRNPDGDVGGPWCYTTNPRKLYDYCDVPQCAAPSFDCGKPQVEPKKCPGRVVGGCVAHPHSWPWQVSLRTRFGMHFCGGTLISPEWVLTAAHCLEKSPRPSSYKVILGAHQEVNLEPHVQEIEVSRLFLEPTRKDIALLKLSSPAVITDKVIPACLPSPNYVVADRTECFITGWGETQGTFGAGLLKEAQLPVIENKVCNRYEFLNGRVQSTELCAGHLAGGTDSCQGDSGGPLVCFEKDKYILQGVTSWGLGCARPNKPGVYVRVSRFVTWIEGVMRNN

Percent Inhibition, 10 µM Ac-PRNK-cmk [1]: 0%
Percent Inhibition, 100 µM Ac-PRNK-cmk [1]: 0%
Percent Inhibition, 10 µM Ac-PRNK-cmk (Factor Xa): 0%
Percent Inhibition, 100 µM Ac-PRNK-cmk (Factor Xa): 0%
Percent Inhibition, 10 µM Ac-PRNK-cmk (Human thrombin): 0%
Percent Inhibition, 100 µM Ac-PRNK-cmk (Human thrombin): 0%
Percent Inhibition, 10 µM Ac-PRNK-cmk [2]: 95%
Percent Inhibition, 100 µM Ac-PRNK-cmk [2]: 100%
Percent Inhibition, 10 µM Ac-PRNK-cmk (Human plasmin): 0%
Percent Inhibition, 100 µM Ac-PRNK-cmk (Human plasmin): 63%
Percent Inhibition, 10 µM Ac-PRNK-cmk [3]: 0%
Percent Inhibition, 100 µM Ac-PRNK-cmk [3]: 34%
Percent Inhibition, 10 µM Ac-PRNK-cmk [4]: 95%
Percent Inhibition, 100 µM Ac-PRNK-cmk [4]: 100%
B1: Ac-PRNK-cmk (peptide)
peptide: Ac-PRNK-CH2Cl
SMILES: CC(=O)N1CCC[C@H]1C(=O)N[C@@H](CCCNC(=N)N)C(=O)N[C@@H](CC(N)=O)C(=O)N[C@@H](CCCCN)C(=O)CCl
